# Results reported in article doi:10.1101/2024.08.06.606614 (bioRxiv, 2024).
# B1: germ cell-less 1 (GMCL1) (natural protein)
# chain: MGALSSRVLRPAGRTEQPEPTPGAGGAARRSDAGEDAGHSFCYCPGGRKRKRSSGTFCYCHPDSETDDDEDEGDEQQRLLNTPRRKKLKSTSKYIYQTLFLNGENSDIKICALGEEWSLHKIYLCQSGYFSSMFSGSWKESSMNIIELEIPDQNIDIEALQVAFGSLYRDDVLIKPSRVVAILAAACMLQLDGLIQQCGETMKETISVRTVCGYYTSAGTYGLDSVKKKCLEWLLNNLMTHQSVELFKELSINVMKQLIGSSNLFVMQVEMDVYTALKKWMFLQLVPSWNGSLKQLLTETDVWFSKWKKDFEGTTFLETEQGKPFAPVFRHLRLQYIISDLASARIIEQDSLVPSEWLAAVYKQQWLAMLRAEQDSEVGPQEINKEELEGNSMRCGRKLAKDGEYCWRWTGFNFGFDLLVTYTNRYIIFKRNTLNQPCSGSVSLQPRRSIAFRLRLASFDSSGKLICSRATGYQILTLEKDQEQVVMNLDSRLLIFPLYICCNFLYISPEKRTESNRHPENPGH
# B2: GOT1L1 (putative aspartate aminotransferase) (natural protein)
# chain: MTSLSVFRDVPTAQKLEGSLLKIYRQDGYPSKLFLAYKVCMTEEGHPWVSLVVHKTRLQIAEDPSLDYEYLPLVGLKSFIQSSLELLFGKHSEAIAEKRVGGVHIVGESGAFQLGAQFLKTWRKNVKIVCIVSCQKEQCGLIFQDMGFIVYEYSIWNASDLCSDPSMFVEVLQHIPVGSILVIGNITDCKFTQNQWTKLMSIIKSKQIFPFFDIPCQGLSTGDLEEDTKILQYFVSLGLEFFCSQSLSKNFGIYDEGVGILVVAALSNQHLLCVLSQLMDYVQALWGNPPATGARIITSILCNPALFGEWKQSLKGVVENMMLIKEKVKEKLRLLGTPGSWDHITRQSGTHGYLGLTYQQVEFLVKKKHIYLPKTSRINFTCINARNIDYITQSIHEAVMLTEG
# B3: SPAG16 (natural protein)
# chain: MAAPSGVPPLRVLEELGIGLSPTGEVTEAVTSEGAYYLEQVTITETSEDECEYEEIPDDNFSIPEGEEDLEKAIHIIGEQARDIHILEQQTILPARNVMQEAIEDFLCNFLIKMGMTRTLDCFQAEWYELIQKKGSDFKGLGNVPDVYSQVMLLETENKNLKKELKHFKQAAEKAKEDLLRTQKERDFHRMHHKRIVQEKNKLIADLKGLKLHYASYEPTIRVLHEKHHALLKEKMLTSLERDRAVGKISGLQATLKNIDMGHIQVPVIKGSYESASITRESGDRAGHSCEKENSSEGPTQKSLREAREEVGYKSKLKNEKKDSEFPVDMQPDPNVTSCTENVSAAKFDYKLNNIFRLHELPVSCIVMHPCRDYLISCSEDRLWKMVGLPQGNVLLTGSGHTDWLSGCCFHPSGSKLATSSGDSTIKLWDLNKGECTLTLEGHNHAVWSCTWHSCGDFVASASLDMTSKIWDVNSERCRYTLYGHTDSVNSIEFFPFSNILLTASADKTLSVWDARTGKCEQSLYGHMHSVNDATFTPRGHIIASCDARGVTKLWDFRKLIPIVSIDVGPSSGNEVNFDQSGRVLAQASANGIIHLLDLKSGQIHKLVGHESEVHSVVFSHLGENLYSGGSDGTIRLWI
# B4: CFAP70 (natural protein)
# chain: MDQTSSTTKIVHITVTNGYDLKGFKGDTPVTFVRAEFNQTVLGDSSKVTVSPEGTAKYNFTSNIDLSPDGGGALDDLAHKPLFLTVTEVLPKEKKQKDEKTLILGQAVVDLLPLLEGEESFETTVPLHPVPGSPLETPLPGSKQCSLDVKVFVAEPLLTPAQVSASNLLKVTLEAAYSVPESFIPVGPQQNYMVGLQVPSVGEKDYTMIFKNGNLKLGGEKEPVPRPKKWPIANILAPGASNIPDEFIVGGPYEEEEGELNHPEDREFRNQAECTKKRIVWDLESRCFLHPFAVASFQKRIADCRLWPVEITRVPLVVMPKAKPGKLEKIDDENQLSFHGVAYINMVPLLYPGVKKIRGAFHVYPYLDGTVFEKTKCLFSLFRDTGHHLVQNNKAGGLNSPLSKPLSKNLKEEKPGKDKDTEGRPRLGELQAPSIKSQSSDTPLESEAPLSHNLEGQQYIEAGTYIVLEIQLEKALVPKRMPEELARRVKEMIPPRPPLTRRTGGAQKAVSDYHTQIKSISRAILNEYYRMFGKQGPKLESDIDNETMEERKCQLNYELNCSGKYFAFKEQLKHAVVKIVREKYLKTTAFESQEELQTFISELYVFLVDQMHVALNQAVPDDVPSSTSTIQTSSEQLRLFAFEAEVNEKFEIAAMYYEERLVREPQNLENWLDYGAFCLLTEDNIKAQECFRKALSLNESHVDSLLLCGVLAILLENYEQAEIFFEDATCLEPTNVIAWTLLGLFYEIQNNDIRMEMAFHEAFKQLQARTLQTKLKSTVTIENMEEGVKVEPSFGPWGVVQESTTAIKTEGLSGMRPQSSHQLSPHTNMELHPQPQGPNTALSSLDEFLEESPKAQSESQEPMATGQPLEPSLVQRSSNALLKELTSKKDISKCQDSSAFSPPTQHVIAQPPVTIFMETIRFLMKVNAVQFVHRVLAHELLCPQGGPSCEYYLVLAQTHLLKKDFAKTEEYLQQAAQMDYLNPNVWGVKGHLYFLSGNHAEAKECYERTISFVVDASEMHFIFLRLGHIYLEEKEYENAKRTYMHACKRSPSCLTWLGLGIACYRLEELTEAEDALSEANALNNCNAEVWAYLALVCLKVGRQLEAEQAYKYTIKLKLKDQALLEEIHTVQEMVGFGNPSF
# Tests used:
# [1] = biological target: HYDIN (mouse (endogenous in mouse sperm)) (UniProt Q80W93); assay: cryo-EM structure
# cryo-EM structure = biological target: the molecule itself; assay: cryo-EM structure
Molecule,stoichiometry N [1],stoichiometry N (cryo-EM structure)
"HYDIN, Q80W93 1-5154",3,–
B1,–,2
B2,–,2
B3,–,2
B4,–,2
